Substitutions are numbered along the chain they refer to. Numbers in names are those of the source.
B1: Microvirin (MVN) (natural protein)
chain: MPNFSHTCSSINYDPDSTILSAECQARDGEWLPTELRLSDHIGNIDGELQFGDQNFQETCQDCHLEFGDGEQSVWLVCTCQTMDGEWKSTQILLDSQIDNNDSQLEIG
B2: MVN(Q81K/M83R) (natural protein)
chain: B1 chain with Q81K, M83R
B3: cyanovirin-N (CVN) (natural protein)
chain: LGKFSQTCYNSAIQGSVLTSTCERTNGGYNTSSIDLNSVIENVDGSLKWQPSNFIETCRNTQLAGSSELAAECKTRAQQFVSTKINLDDHIANIDGTLKYE
B4: MVN_Q81K (natural protein)
chain: B1 chain with Q81K
B5: MVN_Q81K/M83R/G85Q (natural protein)
chain: B1 chain with Q81K, M83R, G85Q
B6: MVN_G43E/Q81K (natural protein)
chain: B1 chain with G43E, Q81K
B7: MVN_G43E/G85Q (natural protein)
chain: B1 chain with G43E, G85Q
B8: MVN_Q81K/G85Q (natural protein)
chain: B1 chain with Q81K, G85Q
B9: MVN_G43E (natural protein)
chain: B1 chain with G43E
B10: MVN_G85Q (natural protein)
chain: B1 chain with G85Q
B11: MVN_G43E/M83R (natural protein)
chain: B1 chain with G43E, M83R
B12: MVN_M83R (natural protein)
chain: B1 chain with M83R
B13: MVN_G43E/Q81K/M83R/G85Q (natural protein)
chain: B1 chain with G43E, Q81K, M83R, G85Q

These binders were tested against T1, HIV-1 YU2 gp120 (HIV-1 YU2, UniProt P35961 32-498) (assay: ELISA).

Binder	IC50 [nM]
B1	68 ± 8

These binders were tested against T1, HIV-1 YU2 gp120 (assay: ITC).

Binder	Kd [nM]	stoichiometry N
B1	225 ± 10	1.29 ± 0.04 protein:gp120
B2	75 ± 11	1.31 ± 0.132 protein:gp120

What follows are binders tested against T1, HIV-1 YU2 gp120 (assay: SPR).

Binder	Kd [nM]	koff [s⁻¹]	kon [M⁻¹ s⁻¹]
B3	8.65	1.48e-05	1710
B1	120		

Biological target: T1, HIV-1 YU2 gp120
Test: SPR
Remark: another data set of the same source

Binder	koff [s⁻¹]	kon [M⁻¹ s⁻¹]	Kd [nM]	k1 (step 1, association) [M⁻¹ s⁻¹]	k2 (step 2, forward) [M⁻¹ s⁻¹]	k-1 (step 1, dissociation) [s⁻¹]	k-2 (step 2, reverse) [s⁻¹]
B1	0.000445	4160					
B4	0.000368	9180	45	1.73e+06	0.0048	0.16	0.0023
B5	0.000232	3240	77	340000	0.0055	0.058	0.0041
B6	0.000173	1660	120	180000	0.0082	0.064	0.0027
B7	0.000122	710	180	90000	0.0077	0.051	0.0024
B8	9.4e-05	880	101	160000	0.0041	0.053	0.00178
B9	0.00061	2020	360	340000	0.0049	0.244	0.0025
B10	0.000191	2960	72	290000	0.0089	0.071	0.0027
B11	0.000103	980	130	110000	0.0075	0.045	0.0023
B2	3.3e-05	1880	21	310000	0.0051	0.03	0.0011
B12	0.000145	2990	52	290000	0.0076	0.05	0.0029
B13	0.000156	1490	100	240000	0.0063	0.078	0.002

— paper PMC5944358 (The Biochemical journal, 2018)
